Substitutions are numbered along the chain they refer to.
B1: HTS0373 scFv (scFv, V domains shown)
VH: EVQLQQSGPELVKPGASMKISCKASGYSFAGYTVNWVKQSHGKNLEWIGLINPYNGGTTYTPKFKDKATLTVDKSSSTAYMELLSLTSEDSAVYYCTRGGFYRYDFDFWGQGTSVTVSS
VL: DILMTQSPSSLSASLGERVSLTCRASQEISGYLSWLQQKPDGTIKRLIYAASTLDSGVPKRFSGSRSGSDYSLTISSLESEDFADYYCLQYASYPFTFGSGTKLEMK
notes: Tested as one scFv chain in E. coli supernatant, found with an anti-6xHis antibody
B2: HTS0374 scFv (scFv, V domains shown)
VH: B1 VH with E1Q, A16T, A30T, V115L
VL: EIQMTQSPSSLSASLGERVSLTCRASQDIGSSLNWLQQEPDGTIKRLIYATSSLDSGVPKRFSGSRSGSDYSLTISSLESEDFVDYYCLQYASSPYTFGGGTKLEMK
notes: as for B1
B3: HTS0371 scFv (scFv, V domains shown)
VH: EVQLQQSGPELVKPGASVKMSCKASGYTFTSYVMHWVKQKPGQGLEWIGYINPYNDGTKYNEKFKGKATLTSDKSSSTAYMELSSLTSEDSAVYYCARGGKLNWYFDVWGAGTTVTVSS
VL: NIVMTQSPASLAVSLGQRATISCRASESVDSYGNSFMHWYQQKPGQPPKLLIYLASNLESGVPARFSGSGSRTDFTLTIDPVEADDAATYYCQQNNEDPYTFGGGTKLEIN
notes: as for B1
B4: HTS0372 scFv (scFv, V domains shown)
VH: EVQLQQSGPELVKPGASMKISCKASGYSFTGYTMNWVKQSHGKNLEWIGLINPYNGRTIYNQKFKGKATLTVDKSSSTAYMELLSLTSEDSAVYYCARVALRYAMDYWGQGTSLTVSS
VL: DIVMTQSQKFMSTSVGDRVSVTCKASQNVGTNVAWYQQKPGQSPKALIYSASYRYSGVPDRFTGSGSGTDFTLTISNVQSEDLAEYFCQQYNSYPLTFGAGTKLEIN
notes: as for B1
B5: HTS0375 scFv (scFv, V domains shown)
VH: B4 VH
VL: B4 VL with D1S, R18K, N28S, G30Y, A46S, S56N, L96V, N107K
notes: as for B1
B6: HTS0370 scFv (scFv, V domains shown)
VH: EVQLQQSGAELMKPGASVKISCKATGYTFSSYWMEWVKQRPGLGLEWIGQILPGSSYTNYNDKFKGKATFTADTSSNTAYMQLSSLTSEDSAVYYCAKKGGPIYYGNRPFYYAMDYWGQGTSVTVSS
VL: NIMMTQTPKFLLVSAGDRVTITCKASQSVSNDVAWYQQKPGQSPKLQIYYASNRYTGVPDRFTGSGYGTDFTFTISTVQAEDLAVYFCQQDYSSPLTFGAGTKLEIK
notes: as for B1

What follows are binders tested against T1, 人GPRC5D (human G protein-coupled receptor family C group 5 member D) (human, UniProt Q9NZD1 1-345) (assay: flow cytometry, scFv supernatant on HEK293-GPRC5D-ZSGreen1 and H929 cells, APC anti-6xHis).
T1 construct: also called huGPRC5D; hGPRC5D
T1 sequence (Q9NZD1 whole entry): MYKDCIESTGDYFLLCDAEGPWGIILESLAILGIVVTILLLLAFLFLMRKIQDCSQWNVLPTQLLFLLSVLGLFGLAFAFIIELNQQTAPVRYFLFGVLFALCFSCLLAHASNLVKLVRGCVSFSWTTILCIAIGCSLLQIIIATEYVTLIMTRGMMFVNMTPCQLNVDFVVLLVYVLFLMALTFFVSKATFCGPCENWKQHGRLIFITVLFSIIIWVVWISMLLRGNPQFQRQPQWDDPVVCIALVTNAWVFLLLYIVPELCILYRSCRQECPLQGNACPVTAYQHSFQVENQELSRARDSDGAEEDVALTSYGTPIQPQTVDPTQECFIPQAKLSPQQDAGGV

Binding result, binds:
B1
B2
B3
B4
B5
B6

From patent CN115386006A (SHANGHAI XIANGYAO BIOLOGICAL TECH CO LTD, dated 2022)
